# Source: the nanobody polyreactivity screen of Harvey et al. (2022)
# Experiment: yeast display, Sf9 membrane polyspecificity reagent, FACS + sequencing; frameworks hold sequencing errors
# In short: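 Genes from sorted yeast were amplified by colony PCR, read by MiSeq 2 × 250 sequencing and filtered on CDR length. These cells carried a synthetic nanobody library in Saccharomyces cerevisiae BJ5465 and were sorted by FACS into low and high (top ~1%) gates on anti-HA and streptavidin fluorescence. Polyreactivity is labelled according to the gate of origin.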
row,Sequence,polyreactivity (PSR sort gate)
1,QVQLVESGGGIVQAGGSLRLSCAASGGIFLGNAMVWYRQAPGKERELVAGITWSGGRTYYADSVKGRFTISRDNAKNTVYLQMNSLKPEDTAVYYCNKDTPGTRFYGIYSYDYWGQGTQVTVSS,low polyreactivity
2,QVQLVESGGGLVQAGGSLRLSCAASGRIFVVYAMGWYRQAPGKERELVAAITGGGRTNYADSVKGRFTISRDNAKNTVYLQMNSLKPEDTAVYYCAAGTRSDARRYYYWGQGTQVTVSS,low polyreactivity
3,QVQLVESGGGLVQAGASLRVSCAASGISLKYAMVWYRQAPGKERELVASISSRGTSTYYADSVKGRFTISRDNAKNTVYLQMNCLIPEDTAVYYCAARVRWWSPGGYWGQGTQVSVSS,high polyreactivity
4,QVQLEESGGGLVQAGGSLRLSCAASGFNFDVYAMGWYRQAPGKERELVAAISRSGGSTYYADSVKGRFTISRDNAKNTFYLQMNSLKPEDTAVYYCATDLLNNVDYDYWGQGTQVTVSS,low polyreactivity
5,QVQLVESVGVLVQAGGSLRLSCAASGSTFSSYAMGWYRPAPGKERELVAVISSRGTSTSYADSVKGRFTISRDNAKNTVYLQMNSLKQEDTAVYYCAASRFRWVQRYDYWGQGTQVTVSS,high polyreactivity
6,QVQLVESGGGILQAGGSLRLSCAASGFILSPNTMAWSRQAPGKERELVAAISSDVSTYADSVKGRFTISRDNAKNTVYLQINSLKPEDTAVYYCNADDFGYASYEYWGQATQVTVSS,low polyreactivity
7,QVELVESGGGLVQAGGILRLSCAASGSTFSIYAMGWYRQGPGKERELVAAISGDGITKYADSVKGRFTISRDNAKNTVYLQMNSLKPEDTAVYYCNAHELTDDGKMDSWGQGTQVTVSS,low polyreactivity
8,QVQLVESGGGLVQAGGSLRLSCAASGGIFLSNAMGWYRQAPGKERELVAAISRSGGSTYYADSVKGRFTISRDNAKNTVYLQMNSLKPEDTAVYYCAARWTRNYGMNYWGQGTQVTVSS,high polyreactivity
9,QVQLVESGGGLVQAGGSLRLICDASGRIFSFNAMGWSRQAPGKETELVAGITYGGNTYYADSVKGRFTISRDNANNTVYLQMNSLKPEDTAVYYCSAVRGVRHDYWGQGTQVTVSS,low polyreactivity
10,QVQLVESGGALVQAGGSLRISCAASGRTFQVNTMGWYRQAPGKEMELVAAISSAGRTYYADSVKGRFTISRDNAKNTVYLQMNSLKPEDTAVYYCSAAWSYSYWKARYGYWGQGTQVTVSS,high polyreactivity
11,QVQLVESGGGLVQAGGSLRLSCAASGLTFEWYPMGWSRQAPGKERELVAAITTGGTTNYADSVKGRFTISRDNAKNTVYLQMISLKPEDTAVYYCARLYRSGYEYWGQGTHVTVSS,low polyreactivity
12,QVQLVESGGGLVQAGGSLRLSCAASGFTFLSYTMGWYRQAPGKERELVASITASGTRTYYADSVKGRFTISRDNAKNTVYLQMNSLKPEDTAVYYCNRVGFDYWGQGTQVTVSS,low polyreactivity
13,QVQLVESGGGLVQAGGSLRLSCAASGFTFYGNAMGWYRQAPGKERELVAAISSGGSTNYADSVKGRFTISRDNAKNTVYLQMNSLKPEDTAVYYCAASYPGQVSFPYASIGFDYWGQGTQVTVSS,low polyreactivity
14,QVQLVESGGGLVQAGGSLRLSCAASGYTFYINATGWYRQAPGKERELVAVITWSSGSTYYADSVKGRFTISRDNAKNTVYLQMNSLKPEDTAVYYCAADVTYEDGAWTIQYDYWGQGTQVTVSS,high polyreactivity
15,QVQLVESGGGLVQAGGSQRLSCAASGRIFRYYAMGWYRQAPGKERELVAAITWSGGSTYYADSVKGRFTISRDNEKNTVYLQMNSLKPDDTAVYYCTAISYQPFHGDYWGQGTQVTVSS,low polyreactivity
16,QDQLVESGGGLVQAGGSLRLSCAASGSTFHPYAMGWYRQAPGKERELVAAITFSGGSTYADSVKGRFTISRDNAKNTVYLQMNSLKPEDNAVYYCAAEWWYWRGWRDYWGQGTQVTVSS,low polyreactivity
17,QVQLVESGGGLVQAGGSLRLSCAASGRTLPKYVLGWYRQSPGKERELVAAISSSGDSTYYADSVNGRFTISRDNAKNTVYLQMNILKPEDTAVYYCDKYDRNTYGYWGQGTQVTVST,low polyreactivity
18,QVQLVESGGGLVQAGGSLRLSCAATGSTFAKYAMCSYRQAPGKERELVASISGSGGSTYYADSVKGRFTISRDNAKNTFYLQMNSLIPEDTAVYYSAARRYVWYYWGQGTQVTVSW,high polyreactivity
19,QVQLVDSGGGLVQAGGSLRLSCDATGRIFRLYAMGWYRQAPGKERELVAAISWRGSSTNYADSVKGRFTISRDNAKNTVYLQRNSLKPEDTAVYYCAAPGRGGYYYWGQGTQVTVSS,high polyreactivity
20,QVQLVESGGGLVQAGGSLRLSCAASGFTFDKYAMGWYRQAPGKERELVAAISSSGGSTYYADSVKGRFTISRDNAKNTVYLQMNSLKPEDTAVYYCATGRIRWYARYDYWGHGTQVTVSS,high polyreactivity
21,QDQLVESGGGIVQAGGSLRLSCAASGSTFYENAMGWYRQAPGKERELVAAITWSGGRTYYADSVKGRFTISRDNAKNTVYLQMNSLKPEDTAVYYCAALYGVSEEDDYWGQGTQVTVSS,high polyreactivity
22,QVQLQESGGGLMQAGGSQRLSCAARGSISYYSDMGWYLQAPGKEREFVAGIGYGTTTNYADSVKGRFTTSRDNAKNTVYLQMISMKPEDTAVYYCAAYQGNGYEFYYWGQGTQVTVRS,low polyreactivity

row,Sequence,polyreactivity (PSR sort gate)
1,QVQLVESGGGLVQAGGSLRLSCAPSGFIFGSYAMGWYTQAPGKERELVAAISRSGGRTYYADSVKGRFTISRDNAKNTVYLQMNSLKPEDSAVYYCAAVHLLVYPTYDSWGQGTQVTVSS,high polyreactivity
2,QVQLVESGGGLVQAGGSLRLSCAASGSIFAYNAMGWYRQAPGKERELVAANSYSGASTYYADSVKGRFTISRDNAKNTVYLQMNSLKPEDTEVYYCAATSRRRGTKGYWQVWPRFDYWGQGTQVTVSS,high polyreactivity
3,QVQLVESGGGLVQAGGSLSLSCAASGRIFYRYAMGWYRQAPVKERELVAAISGSVGSTYADSVKGRFTISRDNAKNTVYLQMISLKPEDTAVYYCARETYRRYGAYDYWGQGTQVTVSS,low polyreactivity
4,QVQLVESGGGLVQAGGSLRLSCAASGLIFFTYAMGWYRQAPGKERELVATISRGGRTKYADSVKGRFTISRDNAKNTVYLQMNSLKPEDTAVSYCAAYLSRSYYAYDYWGQGTQVTVSS,high polyreactivity
5,QVQLVESGGGLDQAGGSLRLSCAASGYVMGWYRQAPGKERELVASITRGTSTYYADSVKGRFTISRDNAKNTVYLQMNSLKPEDTAVYYCAARTTSGEWPPGKIGTYLYDYWGQGTQVTVSS,low polyreactivity
6,QVQLVESGGGLVQAGGSLRLSCAASGSTFGYYAMGWYRQAPGKERELVAAITSGGTTNYADSVKGRFTISRDNAKNTVYLQMNSLKPEDTAVYYCNAVGTFVRYWTDGRDGVTYDYWGQGTQVTVSS,low polyreactivity
7,QVQLVESGGGLVQAGGSLRLSCAASGRTFVGYPMGWCRQAPGKERELVAAIDLSDGSTSYADSVKGRFTISRDHAKNTVYLQMISLTPEHTAVYYCAKTSANVYAGAHDSWGQGTQVTVSS,low polyreactivity
8,QVQLVESGGGLVQAVGSHRLSCAASGFIFTSYAMGWYRQAPGKERELVAAITRSGGRTYYADSVKGRFTISRDNAKNTVYLQMNSLKPEDTAVYYCAAVTFYQSPARGYWGQGTQVTVSS,high polyreactivity
9,QVQLVDSGGGLVQAGGSLRLSCAASGFIFTQYAMGWYRQAPGQDRELVAAISRSGSSTYYADSVKGRFTISRDNAKNTVSLQMNSLKPEDTAVYYCAAKGSRGTRYWGEDYWGQGTQVTVSS,low polyreactivity
10,QVQLVESGGGLVQAGGSLRLSCAASGSIFGRNAMGWYRQAPGKEREFVATITSRGGRTYYADSVKGRFTISRDNAKNTVYLQMNSLKPEDTAVYYCAADTYISTLKKYRLGDYWGQGTQVTVSS,low polyreactivity
11,QVQLVESGGGLVQAGGSLRLSCAASGFTFYQYGMGWYRQAPGKERELVATITSGGRTNYADSVKGRFTISRDNAKNTVYLQMNSLKPEDTAVYYCNKLPYYPRFGRIGRYYYWGQGTQVTVSS,high polyreactivity
12,QVQLVESGGGLVQAGGSLRLSCAASGGIFSYAMGWYRQAPGKERELVADINSDGSTTYADSVKGRFTISRDNAKNTVYLQMNSLKPEDTAVYYCAVDVSVNWPLLERYEYWGQGTQVTVSS,low polyreactivity
13,QVQLVESGGGIVQAGGSLRLSCAASGRTFNHYAMGWYRQAPGKERELVAAITNGGNTYYADSVKGRFTISRDNAKNTVYLQMNSLKPEDTAVYYCAKLYTDAIVWSAYDYWGQGTQVTVSS,low polyreactivity
14,QVQLVESGGCLVQAGGSLRLSCAASGLIFPSYAMGWYRQAPGKERELVAAITFSGSDTNYADSVKGRFTISRDNAKNTVYLQLYSLIPEDTAVYYCAAAYFDFWGWLHDYWGQGTQVTVSS,low polyreactivity
15,QVQLVESGGGLVQAGGSLRLSCAASGLIFYGNAMGWYRQAPGKERELVADITGSSVRTYYADSVKGRFTISRDNAKNTDYLQMNSLKPEDTAVYYCAATYGYLYTGLSRYDYWGQGTQVTVSS,low polyreactivity
16,QVQLVESGGGLDQAGGSLRLSCAASGSTFYDNAMRWYRQAPGKERELVADISSGGRTNYADSVKGRFTISRDNAKNTVYLQMNCLKPEDTAVYYCAARLYVLRWYPYDYWGQGTQVTVSS,low polyreactivity
17,QVQLVESGGGLVQAGGSLRLSCAASGYTFGFYAMGWYRQAPGKERELVAAISRSGGRTYYADSVKGRFTISRDNAKNTVYLQMNSLKPEDTAVYYCAAYQYGMDYWGQGTQVTVSS,high polyreactivity
18,QVQLVESGGGLVQAGGSLRLSCAASGSTFYQNAMGWYRQAPGKERELVAAISSRGGSTYYADSVKGRFTISRDNAKNTVYLQMNSLKPEDTAVYYCNTGRGSEMDYWGQGTQVTVSS,high polyreactivity
19,QVQLVESGGGLVQAGGSLRLSCADSGRIFYSYTRGWYRPAPGKERELVAAIRKSGGRTYYADSVKGRFTISRDNAKNTVYLQMNSLKPEDTAVYYCATTNYELSYYYWGQGTQVTVSS,high polyreactivity
20,QVQLVESGGGLDQAGGSLRLSCAASGRIFRFYAMGWYRQATGKERELVAAISSRGGSTYYADSVKGRFTISRDNAKNTFYLQMNSLKPEDTAVYYCAKKTWRDYSYNYWGQGTQVTVSS,high polyreactivity
21,QVQLVESGGGLVQAGGSLRLSCAASGSILPYYAMGWYRPAPGKERELVATITDGTDTYYADSVKGRFTISRDNAKNTVYLQMTSLKPEDTAVYYCARKQYWGYDYWGQGTQVTVSS,low polyreactivity
